Assay results as given in PMC11761039.
Blank lines part the entries; values can stand above or below the substance they belong to.

Columns and labels:
[1] = molecular target: MBP-tagged G2L4 RT dimer interface NTE + Thumb mutant (R12/Y15/R398A); test: native gel or EMSA
[2] = molecular target: MBP-tagged G2L4 RT dimer interface Thumb mutant (R397/R398/R404A); test: native gel or EMSA
[3] = molecular target: MBP-tagged wild-type G2L4 RT; test: SEC

proportion of monomers [1]: 36%
Substance: MBP-tagged G2L4 RT dimer interface NTE + Thumb mutant (R12/Y15/R398A) (enzyme)

proportion of monomers [2]: 25%
Substance: MBP-tagged G2L4 RT dimer interface Thumb mutant (R397/R398/R404A) (enzyme)

Substance: MBP-tagged wild-type G2L4 RT (enzyme)
stoichiometry N [3]: 2
